Laboratory results reported in the DeepSol protein solubility set.

assay: soluble on expression in E. coli; label from the status in PepcDB or PDB records

| Sequence | soluble on expression in E. coli |
| --- | --- |
| MLSKTNQNIFTVSRLNAEVRLLLENEMGIVWLVGEISNFSAPVSGHWYLTLKDSRAQVKCAMFRGNNRRVTFKPANGNQVLVKARLSLYEPRGDYQLIIESMQPEGDGRLQQEFEELKMKLAAEGLFAQTNKLPLPEHPKRVGIITSKTGAALYDILDVLKRRDPSLPVVIYPTMVQGDDAAIQIAQAIGRANSRNECDVLIVGRGGGSLEDLWCFNNEILARTIAASQIPIISAVGHEVDMTIADFVADVRAPTPSAAAELVSRDNSHKDQSLVAKQHKLASAMRYYLSQQKQQSAQLLHRLERQHPSYQLQRQSQQLDELDMRLRRAMQRFIDTRQQAVERKHHRLQLNSPVKHLAQQKSRLERVEHKLLDTMDRKLLTMRHQLAIAAEKLDTVSPLATLKRGYSITQTEQGKVVTSADDVKTGDLLVTRLANGEIHSTVS | not soluble |
| MLSQLPLFAGGEIVRGFGRGSKELGIPTANFPLEVVKSLPESLPTGAYYGWANVDNGPVHKMVLSIGWNPFYNNKEKSVETHMLHDFNCDLYGQTLKICIVGYLRPERSFDSLESLIAAIRGDIEQAKAFLDEADKAKLKEAPFFTEKLCSSKLEHHHHHH | not soluble |
| MLSSSPASCTSPSPGTDNPDKKVHWASEKRRRASSTDSESKTHLDISKLPRSRRPSRLTVKYDRGHLQRWLEMEQWVDAQVQELFQGQEESSEPEIDLEALMDLSTEDQRTQLEAILQDCPGNREPFISELLSQLKRLRRLSRPSK | soluble |
| MLSVMRMQIPKTHPRYESLMKREKIIEALDKGILAKAGLIAHGRGETFDYLIGEKTAPIALEAIKAAAALLILAENPVISVNGNTVALAIDEVVELAKELNGKIEVNLFYRTKERELAIKRAFEEKFKDDIETGKIKILGIDDANKQIPNLDSLRGKVSEEGIFTADVVLVPLEDGDRAEALVNMGKKVIAIDLNPLSRTARKSTITIVDELTRAMPLLIKYVKEFKNKDREELLKIVEDFDNKKNLKDMIDYIAERLKNLSLEHHHHHH | soluble |
| MLTACNGSRKGDANLSDNPLLQSSALFMEAPEFDKIKTEHFLPAFEAGMEQQLAEIDSIVNNSEAPTFENTLVAMERSGQTLKRVSNVFFGLTGANTNDELQKIEEKVSPLLAAHSDAIYLNDKLFQRVKAVYESDQSAIEPEGQKLIQEYYDAFVRAGANLSAEDKAKLMELNKEEASLTTEFGNKLIAATNAAAVIVGSKDSLDGLSETEIAKAASDAKAAGHEGKYLLNITNTTQQDYLSVLNDRTIRQRVLEASIHRTDKGDANDTQSIVLRLARLRAQKARLLGFPNYAAWKLQNQMANNPETVLAFVKSIATPYAPQAQKDAAELQAYARSKGFEGDLTAADWNYYADKLRKEKFGLDENEVKQYFVTDSVLKNGVFYAANKLYGLTFKERTDLPVYAEDVRVFDVIDQDGKQLALFYTDLYRRPTKSGGAWMSNWVDQSYLLNQKPVIYNVCNYAKGVDGQPSLINYDEVTTLFHEFGHALHGMFAAQQYPLLSGTNVARDFVEMPSQLNEHWAMDPEVFANYAKHWKTQEPMPAELVKKIQDASDFNQAYSMGENLAAVSLDQAWHTLTVEEAEAITDVAKFEEEALRKVGLYNPQIPPRYRSSYFRHIWSNGYASGYYAYLWTEVLDHNVYQWMVQNGGMTPQNGQRLRDMILSRGNTQDFNVIFTAFTGLQKPDIRDLLRARGLM | soluble |
| MLTDLEKNAIRDHYQNIGKNLPGFRPRASQREMIAAVANAFSRTLAREEGGEPPKREGESIAVIEGPTGVGKSLAYLLAGGIMAQTRGKRLIVSSATVALQEQLVDRDLPFLVEKSGLELTFALAKGRGRYLCPYKLYRLTQSNAQQNLLGFEAPAVLWDSKPKPEELKLLRDIADEFSARRFNGDRDTWPEKIDDAIWLKVTNDRHGCLKTACPNRPECPFYLARDVLETVDVVVANHDLLLADISMGGGVILPAPENSFYCIDEAHHLPKKALSRFAAEHSWNIAVWTLEKLPQLTGKIAALTDKAELANLADEAAASLLDSLHEWQFHLAEEPSLSLGVSENDRRTNSEPTWLWEDGKIPEGLETTVSNTAIAARSLLKHVIGLNDALSAARREKEQDGALLDRLTSEFGLFIARIEQISAVWDLLSTVPLEGEEPLAKWITRRADDKNDYIFNASPISSASHLANSLWRRAAGAVLTSATLQSLGNFNLMLRQTGLQWLPETTTLALKSPFDFEKQGELYIPPIYASPKDPEAHTAAVIEWLPKLISPTEAIGTLVLFSSRKQMQDVALRLPGDYLPLLLVQGELPKAVLLQKHHRAIEEGKASIIFGLDSFAEGLDLPGTACVQVIIAKLPFAMPDNPIEKTQNRWIEQRGGNPFIEITVPEAGIKLIQAVGRLIRTEQDYGRVTILDNRIKTQRYGQQLLAGLPPFKRIG | not soluble |
| MLTLITFPKAFGLYSASPFCVKAAYLLTLAGEPWQRQDQTDPRRMPHGKLPVLRTPERLVPDSDGIRAWLESRGAEFDRGLTDAQRASARALIHMAEDHFYPYLVLDRWGNDAVWAIIRDTFFGEIPRLLRKPVTNRIRAQVLRGLDFQGMARFSEAERRDRVERSFEAVTALLWQKPFLFGDAPTGADLSVAPMLAAMRATPVATPLQRRVAGDRVLSDYIDRMDATLPLT | not soluble |
| MLTRDFLQKADCRTSFGCIEETLLLTPQQRADSLDRMLALRPNSCPVWVFGYGSLMWNPVFDAEETCLATLTGWQRAFCLRLTIGRGTVTQPGRMLALQPGGQTTGLAFRLPKTSLREDLELLWKREMLTGCYRPLWCELHRKNGAPLTALVFVSEPEHPLNENDTCIQSVAPLIARASGPLGTNAQYLFALEQELKNHGTEDESVSELAQRVRTLQQSCPAPAGGGQLEHHHHHH | not soluble |
| MLTRVPVLILAVIVMLALCQEPEKPEKRPALLSRYGRAVLPRYGKRSGNLMESSQNSLTEESSDVVCQLIDGKYICLPVDAGFLGEVNGSIKQNSKTKCPAFFKNVSFSLFFRAFYLTVPACTSKKNVLLTSTTSTINHQKLEPATTLSPIRQRRRCLFQIDFAYLTVCPSKCQEGTDTGKVADYLLSLGCSDMDVIEREMKRVCCPE | not soluble |
| MLTYGAPFNFPRWIDEHAHLLKPPVGNRQVWQDSDFIVTVVGGPNHRTDYHDDPLEEFFYQLRGNAYLNLWVDGRRERADLKEGDIFLLPPHVRHSPQRPEAGSACLVIERQRPAGMLDGFEWYCDACGHLVHRVEVQLKSIVTDLPPLFESFYASEDKRRCPHCGQVHPGRAA | soluble |
| MLVDKTEFEAWMERIMGELYRISRKLDKAETREKHLNYLNGERLYDNQEVCLLLRISKRTLQRYRNNGVLKFYSIYHKTYYKESDLHEFIRNNFDENEIKRQAREDKLSESYPLPKE | not soluble |
| MLVNKVEICGVNTSKLPVLTNEQKKELFERMHKGDTSAREEFIKGNLRLVLSVIQRFNNRGEYVDDLFQVGCIGLIKAIDNFDVTQNVKFSTYAVPMIIGEIRRYLRDNNAIRVSRSLRDIAYKALQAKEKLTNQNSKEPTIEEIAKELGLPKEEVVFALDAIQDPISLFESVYHDGGDAIYVMDQVKDEKNNDENWLEGIALSEAMRKLNDREKLILNLRFFDGRTQMEVAEEIGISQAQVSRLEKTALMHMRKYI | not soluble |
| MLVVSIAGSPSVRSRSGVLLERARDWLSRRGVEVASHQVLDFPAEDLLRARLDSPPVLALAEQIGRADGLLVATPVYKASFSGALKVLLDLLPERALEHKVVLPFATGGSSAHMLAVDYALKPVLAALKAQEVLHGVFAVDKQIAYATESDPARLEPVLEQRLENALETFHLALSRRPQPIDPQLLNERLVNARWSI | soluble |
| MLYKGCLMKSDVQLNLRAKESQRALIDAAAEILHKSRTDFILETACQAAEKVILDRRVFNFNDEQYEEFINLLDAPVADDPVIEKLLARKPQWDV | not soluble |
| MLYPSKPNNEALRIQTLRELNVLDTSPEERFDRLTRLAKRLFNVPIALVSLVDADRQWFKSCVGLDVSETSRDISFCGHAILGDQILTVPDAGLDERFHDNPLVVGAPGIRFYAGCPLTVTNGSKLGTLCLIDIKPRDLDDEDRALLRDLARMAEQELAAVQMASMDELTLLSNRRGFEALARHALGVCKRLEKPATLLFFDLNDFKQINDTYGHAEGDGALKTFADVLRIAFRESDVIGRLGGDEFVALLTAADHVETSAIMARLREILDERNATLKRGYDIRFSVGQIEYDAERHPDIEALLADADKAMYLHKQASKRAR | not soluble |
| MMAKDFYSAIEDRRSIYAISKEQVVSDEKIQEVIYHAVKHTPSAFNSQSARVVVLLGEQHDKLWDITKETLRKIVPENNFAPTEEKMNAFKSGYGTVLYFEDSEVVESLQANFALYKDNFPTWSQQSSGMLQFAIWTALEIEGFGATLQHYNPLIDEEVRKEWDVPANWKLIAQMPFGKPVVQAGEKEFQPLENRVKIYKLEHHHHHH | soluble |
| MMDHAHDSCSPTLRRDLEVTGQLQPEKAVDLAAPHEGKVANITKVTSSNMEHTITQASKAKEVVVLIGHSLLPTFQDLEKDILHFQAGNKGRFSVAIVDPDRSADVVARFRPKQIPVAYVVKDGASIAEFNSLNKEPVAQWLDHFVSRETIPNEKEGDVDKQIDPRLWRAAELVNAGDFRAALALYEQLPQDATVKRAHAAVSVLARMSVADRGEDPIEKSRRDPDDVNKALAAADMYVLMNQPDTALAHLAALLPKPEAARRIVELLNLFDPLDLVALEIRAQVGNAMS | not soluble |
| MMDSCIRIAGIIGESIVDGPGIRLVVFAQGCPHHCPGCHNPETHAYEGGKSVAIAEILQRLAMNPLLDGITLSGGEPFAQAAGFALLAQSARQRGFHVMTYSGYTYEELTASSEQNPAWALLLEQTDLLVDGPFQLAERNLLLPFRGSENQRVIDVQESLRQGKVVLASVLEHHHHHH | not soluble |
| MMEMRVGIVGGGLAGLTAAIALAEKGFDVSIIGPRSTDSNSYLAQAGIALPLLEGDSIRIHVLDTIKAGKYINDEEIVWNVISKSSEAHDFLTSHGVTFTGNELEGGHSYPRIFTIKSETGKHIIPILEKHARELDVNFIRGFVEEIGINNGKLAGVFLQGELLKFDAVVIAAGGFSGLYRFTAGVKNNIGLLIGDVALKGVPLRDMEFVQFHPTGFIGKRTYLITEAVRGAGAKLVTGDGERFVNELETRDIVARAIYMKMLEGKGVFLDARGIENFKDRFPYIYSVLRGEGINPEKDLIPITPVAHYTIGGISVDAFYRTRIKGLYAIGESACNGFHGANRLASNSLLECVVSGLEVARTISREKPKREVNDAPYSFNELGDVDSIREVLWNHAGIVRDEWSLREGLRKLKEIEVDERLKLVAKAVIISALKREESRGAHYRKDYPFMRKEFEHSSFFYPNV | soluble |
| MMEPITKETRFNELPQQIKQKLINIYRSSHQQYLSMEMLKPTKFNLLYSQTQDLQTRNLQKNFKLLVESAEKLKRMWNLNKDEVDFRYLHENLKKSLEEFKEEVMLYKKNEGNTEFLDEIAMTYAMLRNKLESLTKERRA | not soluble |
| MMETQNVKDTVRQIFTEYLTANGHRKTPERYAILETIYSIDGHFDIDMLYSRMMDQENFRVSRATLYNTIILLINARLIIKHQFGTSSQYEKSYNRETHHHQICTQCGKVTEFQNEELQHAIENTKLSRFQLSHYSLYIYGLCSKCDRANKRKKVSNNNKKEK | not soluble |
| MMIEPKEKASIGIIGGSGLYDPQILTNVKEIKVYTPYGEPSDNIILGELEGRKVAFLPRHGRGHRIPPHKINYRANIWALKSLGVKWVIAVSAVGSLRLDYKPGDFVVPNQFIDMTKGRTYTFFDGPTVAHVSMADPFCEHLRSIILDSAKDLGITTHDKGTYICIEGPRFSTRAESIVWKEVFKADIIGMTLVPEVNLACEAEMCYSVIGMVTDYDVFADIPVTAEEVTKVMAENTAKVKKLLYEVIRRLPEKPDERKCSCCQALKTALVLEHHHHHHHH | soluble |
